Data taken from US20050079151A1, “Therapeutic agents for apoptosis-related diseases” (priority 1998, published 2005).

How the values were obtained:
G401 cells = experiment: Inhibitory effect on apoptosis induced by carcinostatic (Hoechst staining method); format: cell-based
Experimental: Five groups were prepared; the untreated group, the cisplatin (100 μM) treated group, the MK (1, 10, or 100 ng/mL)+cisplatin (100 μM) treated groups.
G401 cells (2×10^4) were seeded on a 3.5 cm-dish and cultured in 10% FBS/DMEM overnight. 10% FBS/DMEM was added to each dish and further cultured for 24 to 48 hours. The cells were washed twice and cultured in 0.1% FBS/DMEM overnight. MK was added to the MK treatment groups to 1, 10, or 100 ng/ml and cultured in 0.1% FBS/DMEM for 6 hours. Cisplatin was added to the cisplatin treatment groups to 100 μM and cultured in 0.1% FBS/DMEM for 2 hours. After culturing, the cells were washed three times. Then, human MK was added to the MK treatment groups to 1, 10, or 100 ng/ml and cultured in 0.1% FBS/DMEM for 12 or 24 hours.
The cells were fixed with a fixative (methanol:acetic acid=3:1) at room temperature for 10 min, and dried at room temperature for 30 min. Hoechst 33342 (ICN Biomedicals; Ohio, USA) was added thereto to stain the cells at room temperature for 10 to 30 min. The cells were washed with water three times, wind-dried, and mounted onto a fluorescent microscope (Olympus, BX60) and photographed. FIGS. 2A, 2B, and 2C show the untreated group, the cisplatin (100 μM) treated group, and the MK (100 ng/mL)+cisplatin (100 μM) treated group, which were all cultured for 12 hours. […]

[1] = tested on: hippocampal region CA1 neurocytes; experiment: Apoptosis-inhibitory effect in vivo, transient forebrain ischemia, administration before ischemic damage; design: species or system Mongolian gerbil; conditions: for numbers of surviving nuclei contained in the CA1 region per unit length of CA1: mean±standard deviation, saline 18±25, Sham-op 265±38; for number of nuclei showing apoptosis positive reaction (TUNEL) against the total number of cells: saline 69.7±17.0, Sham-op 0.0±0.0; for numbers of neurocytes in CA1: 2 μg MK, saline 10±10, sham-op 263±31
Text: (1) Six to 16 male Mongolian gerbils (6- to 8-week old, body weight: 60 to 80 g) for each group were housed in “HONEY MATIC M-3” (KIMURA MEDICAL INSTRUMENT LTD.), an anesthetic delivery device for Fluothane, and the container was filled with an appropriate amount of inhalation anesthetic “Fluothane” (halothane according to Japanese Phamacopeia). The anesthetized animals were fixed on an operating table equipped with an injection holder (NARISHINGE SCEITIFIC INSTRUMENT LAB.; TYPE SR-5N, No. 97024). After the head was subjected to midline incision, a hole for inserting a syringe of an appropriate size was made by a dental drill at a site 2 mm away from the bregma towards the left eyeball direction. Through this hole, 2 μl of 0.25 mg/ml, 0.5 mg/ml or 1 mg/ml MK solutions (0.5 μg, 1.0 μg, 2.0 μg ) (in physiological saline) were seperately injected into the ventricle with a microsyringe (HAMILTON MICROLITER #701). As control groups, a saline injected group and the sham operated (Sham-op) group were prepared. After injection into the ventricle, the mice were left for 4 min and the operated site was sutured. The chest was subjected to midline incision to expose both right and left common carotid arteries. The both arteries were ligated with two pieces of Sugita brain aneurysm clip (standard type; MIZUHO) to stop blood flow for 5 min, and the blood was circulated again. During ischemic loading, brain temperature and body temperature were maintained constant (37±0.2° C.). Each mouse was distinguished and housed in a nursery cage after coming out of anesthesia to breed, allowing the animals to freely intake water and food. After one week, the mice were fixed while perfusing with saline containing 0.2% heparin (Novo Heparin Injection 100; Japan Hoechet Marion Russell LTD) and 4% paraformaldehyde solution, and beheaded. The brain was excised using scissors, and immersed in 4% paraformaldehyde fixative for one day. The rear portion from 2 mm ahead of the bregma was divided into three using a double-edged razor (Feather). These sections were further fixed for 24 hours. Tissues containing dorsal hippocampus were dehydrated and penetrated, and embedded with paraffin.
A 5 μm section, from 0.5 to 1.0 mm from the tip of the hippocampus or from 1.4 to 1.9 mm behind the sagittal suture was prepared from this paraffin block and observed by the TUNEL method (In situ Apoptosis Detection Kit, TaKaRa). The results are shown in FIG. 8 (×25) and FIG. 9 (×100).
(2) By following the method described in (1), MK solution (0.063 μg, 0.125 μg, 0.25 μg, 0.5 μg, 1 fig, or 2 μg), was injected into the ventricle just before development of ischemic injury to examine protective effects of MK on delayed neuronal death. Seven days after the injury, the CA1 region were stained with hematoxylin-eosine. Micrographs in low magnification (×25) are shown in FIG. 10 (FIG. 10a: saline, FIG. 10b: Sham-op, FIG. 10c: MK 2 μg, FIG. 10d: MK 1 μg, FIG. 10e: MK 0.5 μg, FIG. 10f: MK 0.25 μg), and those in high magnification (×100) in FIG. 11 (FIG. 11a: saline, FIG. 11b: Sham-op, FIG. 11c: MK 2 μg, FIG. 11d: MK 1 vg, FIG. 11e: MK 0.5 vg, FIG. 11f: MK 0.25 μg).
For quantitative evaluation, the numbers of surviving nuclei contained in the CA1 region per unit length of CA1 were obtained (FIG. 12). The values were 18±25/mm(n=15, mean±standard deviation) for the saline administration group and 265±38 /mm (n=23) for the Sham-op group. For the 0.5, 1, or 2 μg MK administration groups, the values were 217±109 (n=7), 228±84 (n=8), and 243±82 (n=10), respectively. The values decreased when MK concentration was low (FIG. 12). There was a significant difference between the saline administrated group and MK administrated (0.5 to 2 μg MK) groups (ANOVA and post-hoc Fisher's PLSD teat, p<0.0001).
Whether the effect of MK administration (2 μg) continues was examined. […]

B1: MK: midkine, a heparin-binding growth and differentiation factor; human MK protein (SEQ ID NO: 3; or recombinant, secreted by yeast) (protein, UniProt P21741 21-143, looked up)
Midkine: VAKKKDKVKKGGPGSECAEWAWGPCTPSSKDCGVGFREGTCGAQTQRIRCRVPCNWKKEFGADCKYKFENWGACDGGTGTKVRQGTLKKARYNAQCQETIRVTKPCTPKTKAKAKAKKGKGKD
In the case of B1, the “numbers of cells containing Hoechst 33342-stained nuclei with condensed chromatin and fragmented nuclei” value (G401 cells; MK 100 ng/mL + cisplatin 100 μM, 12 and 24 hours, compared to cisplatin alone) is reported as “remarkably decreased”, the “Frequency of apoptotic cell death (Hoechst 33342)” value (G401 cells; MK 1, 10 or 100 ng/ml + cisplatin 100 μM, 12 and 24 hours culture, compared with the cisplatin treated group) is reported as “decreased in a MK concentration-dependent fasion” and the “nuclei in CA1 region, hematoxylin-eosine, high magnification” value ([1]; 0.25 μg MK into the ventricle just before ischemic injury, seven days after) is reported as “Deteriorated nuclei were observed”. The “numbers of surviving nuclei contained in the CA1 region per unit length of CA1” value (“numbers … per unit length of CA1” below) ([1]; 0.5 μg MK just before ischemia, seven days after) was 217±109 /mm, the “number of nuclei showing apoptosis positive reaction (TUNEL) against the total number of cells” value (“number … against the total number of cells” below) ([1]; 0.5 μg MK just before ligation, seven days after) was 7.8±19.8 and the “numbers … per unit length of CA1” value ([1]; 1 μg MK just before ischemia, seven days after) was 228±84 /mm. For the same molecule, the “number … against the total number of cells” value ([1]; 1 μg MK just before ligation, seven days after) was 11.0±14.7, the “numbers … per unit length of CA1” value ([1]; 2 μg MK just before ischemia, seven days after) was 243±82 /mm and the “number … against the total number of cells” value ([1]; 2 μg MK just before ligation, seven days after) was 4.6±12.2. The “numbers of neurocytes in CA1” value ([1]; four weeks after ischemia) was 157±60 cells/mm, the “numbers of neurocytes in CA1” value ([1]; one week after ischemia) was 219±74 cells/mm and the “numbers of neurocytes in CA1” value ([1]; three weeks after ischemia) was 185±83 cells/mm. The “numbers of neurocytes in CA1” value ([1]; two weeks after ischemia) was 152±72 cells/mm, the “nuclei in CA1 region, hematoxylin-eosine, high magnification” value ([1]; 0.5 to 2 μg MK into the ventricle just before ischemic injury, seven days after) was “survived circle nuclei were observed” and the “TUNEL stained nuclei in hippocampal region CA1” value ([1]; 0.5 to 2 μg MK just before ligation, seven days after) was “Few stained nuclei were observed”. The “activity against delayed neuronal death” value ([1]; 28 days after the injury) was “showed a significant activity” and the “cells containing TUNEL reaction positive nuclei and atrophied neurocytes in hippocampal region CA1” value ([1]; MK injected into the ventricle before 5 min ischemia, one week after) was “such neurocytes were not observed”.
